{"source": "IntAct's records for PubMed 39009827", "key": {"[1]": {"target": "eps15_human EPS15 (UniProt P42566)", "sequence (P42566 whole entry)": "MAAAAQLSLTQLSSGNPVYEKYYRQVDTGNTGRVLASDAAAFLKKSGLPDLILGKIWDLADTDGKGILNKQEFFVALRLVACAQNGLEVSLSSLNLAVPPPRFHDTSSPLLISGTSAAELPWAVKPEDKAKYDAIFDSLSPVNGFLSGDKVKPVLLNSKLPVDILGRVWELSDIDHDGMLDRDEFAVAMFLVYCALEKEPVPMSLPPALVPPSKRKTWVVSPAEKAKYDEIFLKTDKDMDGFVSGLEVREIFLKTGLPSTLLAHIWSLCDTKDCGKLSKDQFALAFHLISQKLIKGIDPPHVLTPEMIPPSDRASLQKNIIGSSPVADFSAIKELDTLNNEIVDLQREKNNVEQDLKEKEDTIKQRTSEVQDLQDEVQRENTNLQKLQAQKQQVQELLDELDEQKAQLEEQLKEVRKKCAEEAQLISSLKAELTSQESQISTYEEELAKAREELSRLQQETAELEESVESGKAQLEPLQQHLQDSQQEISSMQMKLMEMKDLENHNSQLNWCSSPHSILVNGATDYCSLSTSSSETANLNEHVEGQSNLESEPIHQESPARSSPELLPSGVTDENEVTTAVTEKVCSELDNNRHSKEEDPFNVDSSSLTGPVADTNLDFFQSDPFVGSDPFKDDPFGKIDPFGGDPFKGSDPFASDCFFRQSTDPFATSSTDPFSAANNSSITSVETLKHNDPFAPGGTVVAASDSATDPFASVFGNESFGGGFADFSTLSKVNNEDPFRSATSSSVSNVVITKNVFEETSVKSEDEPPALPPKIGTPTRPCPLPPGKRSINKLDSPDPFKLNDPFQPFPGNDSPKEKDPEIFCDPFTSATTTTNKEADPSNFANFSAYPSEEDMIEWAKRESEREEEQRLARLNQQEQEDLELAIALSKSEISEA"}, "[2]": {"target": "ima3_human KPNA4 (UniProt O00629)", "sequence (O00629 whole entry)": "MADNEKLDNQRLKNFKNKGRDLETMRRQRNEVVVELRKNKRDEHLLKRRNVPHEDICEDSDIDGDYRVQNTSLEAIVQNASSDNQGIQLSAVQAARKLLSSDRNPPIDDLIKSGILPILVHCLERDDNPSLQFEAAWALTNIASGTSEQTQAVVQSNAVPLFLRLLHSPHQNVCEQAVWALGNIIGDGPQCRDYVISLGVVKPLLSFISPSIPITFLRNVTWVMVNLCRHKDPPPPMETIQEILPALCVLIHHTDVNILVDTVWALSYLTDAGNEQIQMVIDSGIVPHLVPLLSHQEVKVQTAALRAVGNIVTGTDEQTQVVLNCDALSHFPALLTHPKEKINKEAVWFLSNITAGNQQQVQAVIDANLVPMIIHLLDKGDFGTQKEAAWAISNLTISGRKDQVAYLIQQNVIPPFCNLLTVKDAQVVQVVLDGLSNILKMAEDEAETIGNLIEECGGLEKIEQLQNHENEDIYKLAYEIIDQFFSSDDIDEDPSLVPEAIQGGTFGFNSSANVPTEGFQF"}, "[3]": {"target": "ima3_human KPNA4 (UniProt O00629)", "remark": "listed apart in the source"}, "[4]": {"target": "terf1_human TERF1 (UniProt P54274)", "sequence (P54274 whole entry)": "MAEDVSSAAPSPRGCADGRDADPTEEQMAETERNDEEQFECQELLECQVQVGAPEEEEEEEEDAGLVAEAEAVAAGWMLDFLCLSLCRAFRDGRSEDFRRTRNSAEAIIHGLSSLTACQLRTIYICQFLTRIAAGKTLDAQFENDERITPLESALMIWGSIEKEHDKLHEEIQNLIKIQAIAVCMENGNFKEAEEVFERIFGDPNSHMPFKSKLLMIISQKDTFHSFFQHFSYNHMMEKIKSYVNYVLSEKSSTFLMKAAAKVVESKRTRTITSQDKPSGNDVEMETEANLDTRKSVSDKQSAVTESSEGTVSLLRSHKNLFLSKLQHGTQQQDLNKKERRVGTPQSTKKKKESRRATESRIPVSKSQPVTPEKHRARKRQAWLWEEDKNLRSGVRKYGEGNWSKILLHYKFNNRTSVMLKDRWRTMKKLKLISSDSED"}, "[5]": {"target": "G3BP2 (UniProt Q9UN86)", "sequence (Q9UN86 whole entry)": "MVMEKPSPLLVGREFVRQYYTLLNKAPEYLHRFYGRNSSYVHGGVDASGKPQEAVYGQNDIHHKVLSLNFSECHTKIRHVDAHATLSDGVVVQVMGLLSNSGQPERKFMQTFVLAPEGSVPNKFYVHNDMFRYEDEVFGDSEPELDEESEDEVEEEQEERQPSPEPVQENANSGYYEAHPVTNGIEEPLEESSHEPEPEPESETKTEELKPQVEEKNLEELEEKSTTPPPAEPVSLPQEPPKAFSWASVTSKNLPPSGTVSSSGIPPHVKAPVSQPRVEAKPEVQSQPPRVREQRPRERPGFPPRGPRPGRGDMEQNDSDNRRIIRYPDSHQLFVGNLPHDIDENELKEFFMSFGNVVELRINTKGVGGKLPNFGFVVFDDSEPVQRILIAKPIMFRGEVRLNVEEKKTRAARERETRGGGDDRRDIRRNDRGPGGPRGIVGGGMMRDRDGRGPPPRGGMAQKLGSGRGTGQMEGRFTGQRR"}, "[6]": {"target": "oxsr1_human OXSR1 (UniProt O95747)", "sequence (O95747 whole entry, looked up)": "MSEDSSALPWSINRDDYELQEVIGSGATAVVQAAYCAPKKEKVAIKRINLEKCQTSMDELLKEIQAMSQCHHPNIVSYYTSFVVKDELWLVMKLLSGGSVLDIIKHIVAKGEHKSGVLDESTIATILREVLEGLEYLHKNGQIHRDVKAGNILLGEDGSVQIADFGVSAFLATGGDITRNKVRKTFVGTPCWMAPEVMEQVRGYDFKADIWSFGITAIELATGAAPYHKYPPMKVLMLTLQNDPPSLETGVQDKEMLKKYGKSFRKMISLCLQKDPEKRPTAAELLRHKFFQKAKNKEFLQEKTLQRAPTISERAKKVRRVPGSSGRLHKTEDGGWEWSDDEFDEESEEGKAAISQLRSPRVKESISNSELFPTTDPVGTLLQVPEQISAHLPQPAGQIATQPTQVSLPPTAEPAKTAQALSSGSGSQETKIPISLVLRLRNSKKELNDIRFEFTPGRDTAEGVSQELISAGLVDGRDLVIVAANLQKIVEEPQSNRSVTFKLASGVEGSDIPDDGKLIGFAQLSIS"}, "[7]": {"target": "src_human SRC (UniProt P12931)"}}, "data": [{"substance": "ADP-ribosylation factor-like protein 13B (Homo sapiens), Q3SXY8 N255K", "values": [{"measurement": "effect of a mutation on the interaction", "setting": "[1]", "result": "decreasing interaction strength"}]}, {"substance": "CREB-binding protein (Homo sapiens), Q92793 K13E", "values": [{"measurement": "effect of a mutation on the interaction", "setting": "[2]", "result": "disrupting interaction strength"}, {"measurement": "effect of a mutation on the interaction", "setting": "[3]", "result": "causing an interaction"}]}, {"substance": "Endothelial PAS domain-containing protein 1 (Homo sapiens), Q99814 F540L", "values": [{"measurement": "effect of a mutation on the interaction", "setting": "[4]", "result": "decreasing interaction strength"}]}, {"substance": "Histone-lysine N-methyltransferase, H3 lysine-36 specific (Homo sapiens), Q96L73 L1797P", "values": [{"measurement": "effect of a mutation on the interaction", "setting": "[5]", "result": "decreasing interaction strength"}]}, {"substance": "Titin (Homo sapiens), Q8WZ42 I34306N", "values": [{"measurement": "effect of a mutation on the interaction", "setting": "[6]", "result": "decreasing interaction strength"}]}, {"substance": "Titin (Homo sapiens), Q8WZ42 I34306S", "values": [{"measurement": "effect of a mutation on the interaction", "setting": "[6]", "result": "decreasing interaction strength"}]}, {"substance": "Titin (Homo sapiens), Q8WZ42 I34306T", "values": [{"measurement": "effect of a mutation on the interaction", "setting": "[6]", "result": "decreasing interaction strength"}]}, {"substance": "Voltage-dependent T-type calcium channel subunit alpha-1H (Homo sapiens), O95180 P684H", "values": [{"measurement": "effect of a mutation on the interaction", "setting": "[7]", "result": "decreasing interaction strength"}]}, {"substance": "Voltage-dependent T-type calcium channel subunit alpha-1H (Homo sapiens), O95180 P684R", "values": [{"measurement": "effect of a mutation on the interaction", "setting": "[7]", "result": "decreasing interaction strength"}]}]}
